Test results: US20210255174

Experiments:
[1] = target: Control peptide #113: [4-Mu]…[DABCYL]-Hex
[2] = target: Control peptide #112: [5-Fam]…[DABCYL]-Hex

Row | Protein | KM [1] [µM] | KM [2] [µM]
1 | Proteinase K (protein) AAQTNAPWGLARISSTSPGTSTYYYDESAGQGSCVYVIDTGIEASHPEFEGRAQMVKTYYYSSRDGNGHGTHCAGTVGSRTYGVAKKTQLFGVKVLDDNGSGQYSTIIAGMDFVASDKNNRNCPKGVVASLSLGGGYSSSVNSAAARLQSSGVMVAVAAGNNNADARNYSPASEPSVCTVGASDRYDRRSSFSNYGSVLDIFGPGTSILSTWIGGSTRSISGTSMATPHVAGLAAYLMTLGKTTAASACRYIADTANKGDLSNIPFGTVNLLAYNNYQA | 4.87 | 3.37
2 | Thermolysin (protein) ITGTSTVGVGRGVLGDQKNINTTYSTYYYLQDNTRGNGIFTYDAKYRTTLPGSLWADADNQFFASYDAPAVDAHYYAGVTYDYYKNVHNRLSYDGNNAAIRSSVHYSQGYNNAFWNGSQMVYGDGDGQTFIPLSGGIDVVAHELTHAVTDYTAGLIYQNESGAINEAISDIFGTLVEFYANKNPDWEIGEDVYTPGISGDSLRSMSDPAKYGDPDHYSKRYTGTQDNGGVHINSGIINKAAYLISQGGTHYGVSVVGIGRDKLGKIFYRALTQYLTPTSNFSQLRAAAVQSATDLYGSTSQEVASVKQAFDAVGVK | 6.45 | 3.58
